Results as given in patent publication US20260116991A1 (HAINAN SIMCERE ZAIMING PHARMACEUTICAL, published 2026).

B1: F1.118.4 human-murine chimeric antibody (antibody, human IgG1, kappa, V domains shown)
VH: QVQLQQSGAELAKPGASVKLSCKASGYSFTSYWIHWVKQRPGQGLEWIGYINPSSGYTKYNQKFKDKATLTADKSSSTAYMQLSSLTYEDSAVYYCARFGSSSFYFDYWGQGTTLTVSS
VL: DIVLTQSPASLAVSLGQRATISCRASQSVSSSSYSYMHWYQQKPGQPPKLLIKYASNLDSGVPARFSGSGSGTDFTLNIHPVEEEDTATYYCQHSWEIPAFGGGTKLEIKR
B2: F1.3.9 human-murine chimeric antibody (antibody, human IgG1, kappa, V domains shown)
VH: QVQLQQPGTELVKPGASVKLSCKASGYTFTSYWIHWVKQRPGQGLEWIGNINPPNAGTNYNEKFKSKATLTVDKSSSTAYMQLSSLTSEDSAVYYCARGRWLLHDYWGQGTTLTVSS
VL: DIQMTQSPASLSISVGETVTITCRASENIYSNLAWYQQKQGKSPQLLVYGTKNLAEGVPSRFSGSGSGTQYSLKINSLQSEDFGNYYCQHFWGTPYTFGGGTKLEILR
B3: F1.111.11 human-murine chimeric antibody (antibody, human IgG1, kappa, V domains shown)
VH: EVQLQQSGPELVKPGASVKISCKASGYTFTDYYMNWVKQSHGKSLEWIGDIYPNNGDTTYNQRFKGKATLTVDKSSSTAYMELRSLASEDSAVYYCACPYNNPFGYWGQGTLVTVSA
VL: DVVMTQTPLSLPVSLGDQASISCRSSQSLVHSNGNTYLHWYLQKPGQSPKLLIYKVSNRFSGVPDRFSGSGSGTDFTLKISRVEAEDLGVYFCSQSTHVPWTFGGGTKLEIKR
B4: F1.115.8 human-murine chimeric antibody (antibody, human IgG1, kappa, V domains shown)
VH: EVQLQQSGPELVKPGASVKMSCKASGYTFTEYYMHWVKQSHGKSLEWIGYIYPNNGGNGYNQKFKGKATLTVDKSSSTAYMGLRSLTSEDSAVYYCVRGYYSNWYFDVWGTGTTVTVSS
VL: DVLMTQTPLSLPVSLGDQASISCRSSQSIVHSNGKTYLEWYLQKPGQSPKLLIYKVSNRFSGVPDRFSGSGSGTDFTLKISRVEAEDLGVYYCFQGSHVPFTFGSGTKLEIKR
B5: F1.136.7 human-murine chimeric antibody (antibody, human IgG1, kappa, V domains shown)
VH: EVQLQQSGPVMVKPGPSVKISCQTSGFTFTDYYIHWVKQSHGKSLEWIGLVFPYDGGTNYNQKFKDKATLTLDTSSSTAYMELNSLTSEDSAVYYCARAGGFSYALNYWGQGTSVTVSS
VL: DIQMTQSPSSLSASLGGKVTITCKASQDINNYIAWYQHKPGKGPRLLIHFTSTLQPGIPSRFSGSGSGRDYSFSISNLEPEDIATYYCLQYDNLLLTFGAGTKLELKR
B6: F1.83.6 human-murine chimeric antibody (antibody, human IgG1, kappa, V domains shown)
VH: QVQLQQSGPELVKPGASVKISCKASGYAFSSSWMNWVKQRPGKGLEWIGRIYPGDGDTNYNGRFKGKATLTVDKSSSTAYMQLSSLTSEDSAVYFCARGGVFTMALDHWGQGTTLTVSS
VL: DIQMTQSPSSLSASLGGKVTITCKASQDINKYIAWYQHKPGKGPRLLIHYTSTLQPGIPSRFSGSGSGRDYSFSISNLEPEDIATYYCLQYDNLFTFGGGTKLEIKR
B7: F1.120.16 human-murine chimeric antibody (antibody, human IgG1, kappa, V domains shown)
VH: EFQLQQSGPELVKPGASVKISCKASGYSFTDYNMNWVKQSNGKSLEWIGLIHPKFSVTSYNRKFKGKATLTVDQSSSTAYMQLNSLTSEDSAVYYCARWAGDYFDYWGQGTTLTVSS
VL: DIVLTQSPATLSVTPGDSVSLSCRASQSISNNLHWYQQKSHESPRLLIKYASQSISGIPSRFSGSGSGTDFTLTINSVETEDFGMYFCQQSNSWPQTFGGGTKLEIKR
B8: F1.145.22 human-murine chimeric antibody (antibody, human IgG1, kappa, V domains shown)
VH: QVQLQQSGTDLARPGASVKLSCKASGYTFTSFGISWVKQRTGQGLEWIGEIYPRSGSPYYNEKFTGKATLTADKSSSTAYMELRSLTSEDSAVYFCAKDFGSSYVFDYWGQGTALTVSS
VL: DIQMTQSPASLSASVGETVTITCRASENIYSYLTWYQQKQGKSPQLLVYNAKTLAEGVPSRFSGSGSGTQFSLKINSLQPEDFGTYYCQHHYGTPPTFGTGTKLDLKR
B9: F1.110.24 human-murine chimeric antibody (antibody, human IgG1, kappa, V domains shown)
VH: EVKLVESGGGLVQPGGSLKLSCAASGFTFSDFYMYWVRQTPEKRLEWVAFISNGGGSTYYPDTVKGRFTISRDNVKNTLYLQMSRLKSEDTAMYYCARPDTSWFAYWGQGSLVTVSA
VL: DIQMTQTTSSLSASLGDRVTISCRASQDIDNYLNWYQQKPDGTVKVLISYTSRLHSGVPSRFSGSGSGTDYSLTISNLEQEDIATYFCQQGNTLPWTFGGGTKLEIKR
B10: F1.92.17 human-murine chimeric antibody (antibody, human IgG1, kappa, V domains shown)
VH: EVQLQQSGPELVKPGASVKMSCKASGYTFTDYNMHWVRQSHGKSLEWIGYINPNNGDTIYNQNFKGKATLTVNKSSSTAYMELRSLTSEDSAVYYCSRTITYYYSMDYWGPGTSVTVSS
VL: QIVLTQSPALMSASPGEKVTMTCSASSSVSYMYWYQQKPRSSPKPWIYLTSNLASGVPARFSGSGSGTSYSLTISSMEAEDAATYYCQQWSSNPLTFGAGTKLELKR

Assays:
human GPC3-His protein [1] = target: T1, human GPC3-His protein (human, UniProt P51654 25-559); test: ELISA, coated human GPC3, antibody 10 nM;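 note: plate coated with antigen at 1 µg/mL, antibodies bound 2 h at 37 °C, detected via HRP-conjugated secondary antibody and TMB substrate, absorbance read after acid stop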
T1 construct: Bought protein; also called human GPC3 protein; not shown: His tag

[2] = target: T2, human GPC3 on CHO-K1-human GPC3 cells (clone CHOK1-hGPC3.2B5) (human, UniProt P51654 25-554); test: FACS on CHOK1-hGPC3.2B5 cells;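 note: flow cytometry binding of chimeric antibodies to the cells, read out as mean fluorescence intensity, with the half-maximal concentration derived by curve fitting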
T2 construct: whole, on cells; Stably transfected CHO-K1 clone 2B5
Experimental: (§1) The desired cells were expanded to a logarithmic growth phase in a T-75 cell culture flask, the medium was removed by pipetting, and the cells were washed twice with a PBS buffer, and digested with trypsin. Then a complete medium was added to stop the digestion, and the cells were blown into a single cell suspension. After counting, the cells were centrifuged, and the cell pellet was resuspended with an FACS buffer (PBS+2% fetal bovine serum) to 2×10⁶ cells/mL. The cell resuspension solution was added to a 96-well FACS reaction plate at 50 μl/well, and a chimeric antibody sample to be tested was added at 50 μl/well for incubation at 4° C. for 1 h. […] After the plate was centrifuged and washed 3 times with a PBS buffer, 100 μl of the resulting solution was assayed and analyzed by FACS (FACS Canto™, purchased from BD Biosciences). Data analysis was performed by software (FlowJo) to obtain the mean fluorescence intensity (MFI) of the cells. Then, analysis was performed by software (GraphPad Prism8), data were fitted, and EC₅₀ values were calculated.

[3] = target: T3, GPC3 endogenously expressed on HepG2 cells (UniProt P51654 25-554); test: FACS on HepG2 cells;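 note: flow cytometric binding of chimeric antibodies to cells, read as mean fluorescence intensity, EC50 obtained by curve fitting of the MFI data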
T3 construct: whole, on cells
Experimental: as §1

human GPC3-His protein [4] = target: T1, human GPC3-His protein; test: ELISA, coated human GPC3, antibody 0.1 nM;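 note: antigen coated on 96-well plates at 1 µg/mL, antibody bound 2 h at 37 °C, detected with HRP-labeled secondary antibody and TMB substrate, acid-stopped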
Experimental: (§2) The specific method is described as follows: The antigen protein was diluted with PBS to a final concentration of 1 μg/mL, and the diluent was added to a 96-well ELISA plate at 50 μL/well. The plate was sealed with a plastic film and incubated at 4° C. overnight, washed twice with PBS the next day, and a blocking solution [PBS+2% (w/w) BSA] was added for blocking at room temperature for 2 h. […] After incubation at 37° C. for 2 h, the plate was washed 3 times with PBS. A horseradish peroxidase (HRP)-labeled secondary antibody (purchased from Merck, Cat. No. AP113P) was added for incubation at 37° C. for 1 h, and the plate was washed 5 times with PBS. A TMB substrate was added at 50 μL/well for incubation at room temperature for 10 min, then a stop solution (1.0M HCl) was added at 50 μL/well. An ELISA plate reader (Multimode Plate Reader, EnSight, purchased from Perkin Elmer) was used to read OD_{450 nm} values, with results as shown in Table 4 to Table 6, FIG. 1A, FIG. 1B, and FIG. 1C.

human GPC3-His protein [5] = target: T1, human GPC3-His protein; test: ELISA, coated human GPC3, antibody 0.001 nM
human GPC3-His protein [6] = target: T1, human GPC3-His protein; test: ELISA, coated human GPC3, antibody 100 nM;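 note: antibodies bound to antigen-coated 96-well plates (1 µg/mL), 2 h at 37 °C, detected with HRP-labelled secondary antibody and TMB substrate, absorbance read at 450 nm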
Experimental: as §2

human GPC3-His protein [7] = target: T1, human GPC3-His protein; test: ELISA, coated human GPC3, antibody 0.0001 nM
human GPC3-His protein [8] = target: T1, human GPC3-His protein; test: ELISA, coated human GPC3, antibody 0.01 nM;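 note: Plate-bound antigen coated at 1 µg/mL, antibody incubated 2 h at 37 °C, binding detected by HRP-conjugated secondary antibody with TMB substrate, read as absorbance at 450 nm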
Experimental: as §2

human GPC3-His protein [9] = target: T1, human GPC3-His protein; test: ELISA, coated human GPC3, antibody 1 nM;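 note: antigen coated at 1 µg/mL on 96-well plates, antibody bound for 2 h at 37 °C, detected with HRP-labeled secondary antibody and TMB, absorbance read at 450 nm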
Experimental: as §2

Row | Binder | OD450 nm (human GPC3-His protein [1]) [OD450] | EC50 [2] [nM] | Max MFI [2] [MFI] | EC50 [3] [nM] | Max MFI [3] [MFI] | OD450 nm (human GPC3-His protein [4]) [OD450] | OD450 nm (human GPC3-His protein [5]) [OD450] | OD450 nm (human GPC3-His protein [6]) [OD450] | OD450 nm (human GPC3-His protein [7]) [OD450] | OD450 nm (human GPC3-His protein [8]) [OD450] | OD450 nm (human GPC3-His protein [9]) [OD450]
1 | B1 | 1.75 | 0.53 | 9640 | 0.33 | 2810 | 0.74 | 0.12 | 1.53 | 0.1 | 0.19 | 1.64
2 | B2 | 1.95 | 2.78 | 3210 | 0.8 | 3810 | 0.92 | 0.11 | 2.07 | 0.1 | 0.21 | 1.66
3 | B3 | 2.46 | 1.08 | 9230 | 1.13 | 1880 | 1.61 | 0.14 | 2.7 | 0.1 | 0.41 | 2.41
4 | B4 | 1.9 | 0.33 | 9980 | 0.18 | 2460 | 0.83 | 0.11 | 2.01 | 0.09 | 0.2 | 1.83
5 | B5 | 1.4 | 1.41 | 9540 | 2 | 2240 | 0.43 | 0.1 | 1.19 | 0.11 | 0.14 | 0.63
6 | B6 | 1.19 | 1.1 | 10100 | 0.87 | 2340 | 0.4 | 0.1 | 0.76 | 0.08 | 0.17 | 0.83
7 | B7 | 1.63 | 0.52 | 9730 | 0.38 | 2080 | 0.56 | 0.14 | 1.62 | 0.11 | 0.22 | 1.23
8 | B8 | 2.35 | 1.18 | 9700 | 0.67 | 2160 | 0.94 | 0.12 | 2.53 | 0.09 | 0.22 | 1.95
9 | B9 | 1.18 | 0.9 | 9370 | 0.83 | 2270 | 0.42 | 0.09 | 0.62 | 0.08 | 0.13 | 0.77
10 | B10 | 1.19 | 2.04 | 9600 | 2.9 | 2300 | 0.25 | 0.09 | 0.66 | 0.08 | 0.11 | 0.68
